Literature values, collected in article PMC2833280.

Assays:
Assay in all cases: kinetics
Glu380 = Glu380 (UniProt position 380, TRWTGEFATHG)
Lys443 [1] = target: Lys443 (UniProt position 443, IVWRKKIGIHE); conditions: enzyme-ATP complex and free CMPr (kcat/Km)
Lys443 [2] = target: Lys443 (UniProt position 443, TVNRPKLGVHE); conditions: enzyme-substrate complexes (kcat)

Substance | pKa (Glu380; enzyme-ATP complex and free CMPr (kcat/Km)) | pKa (Glu380; enzyme-substrate complexes (kcat)) | pKa (Lys443 [1]) | pKa (Lys443 [2])
Carbapenam synthetase (CPS, CarA) (Pectobacterium carotovorum (printed 'Pectobacterium carotorova'; formerly Erwinia carotovora)) | 7.8 ± 0.1 | 7.4 ± 0.1 | 10.0 ± 0.1 | –
beta-Lactam synthetase (beta-LS) (Streptomyces clavuligerus (printed 'Streptomyces clavuligerous')) | – | – | – | 8.07 ± 0.05
